Changes are numbered by the printed parent chain. Names may count otherwise.
B1: A55T/C124A: RLuc mutant A55T/C124A (protein)
chain: MASKVYDPEQRKRMITGPQWWARCKQMNVLDSFINYYDSEKHAENAVIFLHGNATSSYLWRHVVPHIEPVARCIIPDLIGMGKSGKSGNGSYRLLDHYKYLTAWFELLNLPKKIIFVGHDWGAALAFHYSYEHQDKIKAIVHAESVVDVIESWDEWPDIEEDIALIKSEEGEKMVLENNFFVETMLPSKIMRKLEPEEFAAYLEPFKEKGEVRRPTLSWPREIPLVKGGKPDVVQIVRNYNAYLRASDDLPKMFIESDPGFFSNAIVEGAKKFPNTEFVKVKGLHFSQEDAPDEMGKYIKSFVERVLKNEQ
B2: C124A/K136R: RLuc mutant C124A/K136R (protein)
chain: B1 chain with T55A, K136R
B3: C124A/M253L: RLuc mutant C124A/M253L (protein)
chain: B1 chain with T55A, M253L
B4: C124A/Q235A: RLuc mutant C124A/Q235A (protein)
chain: B1 chain with T55A, Q235A
B5: C124A/S257G: RLuc mutant C124A/S257G (protein)
chain: B1 chain with T55A, S257G
B6: C124A/S287L: RLuc mutant C124A/S287L (protein)
chain: B1 chain with T55A, S287L
B7: C124A/A143M: RLuc mutant C124A/A143M (protein)
chain: B1 chain with T55A, A143M
B8: C124A/M295I: RLuc mutant C124A/M295I (protein)
chain: B1 chain with T55A, M295I
B9: C124A/S130A: RLuc mutant C124A/S130A (protein)
chain: B1 chain with T55A, S130A
B10: C124A/F262L: RLuc mutant C124A/F262L (protein)
chain: B1 chain with T55A, F262L
B11: C124A/K300A: RLuc mutant C124A/K300A (protein)
chain: B1 chain with T55A, K300A

Test system: not listed separately
Test: Luciferase activity of purified RLuc mutants (light output integrated over 10 s, luminometer)
Assay type: biochemical
Conditions: benzyl-coelenterazine; relative to native enzyme
Source text: Luminometer Calibration: Light measurements were made using a Turner 20/20 and later a Turner 20/20n luminometer (Turner Designs, Sunnyvale, Calif.). The luminometers were calibrated to absolute units (photons/s) using the luminol light standard performed in dimethyl sulfoxide (DMSO). No corrections were applied for the spectral sensitivity of the luminometer, as the spectral peak of luminol chemiluminescence in DMSO (486 nm) is close to the spectral peak of Renilla Luciferase bioluminescence (482 nm).
Characterization of Renilla Luciferase Mutants: Luciferase activity was measured by adding 1 μl of sample (diluted as necessary in EB containing 1% HSA) to 100 μl room temperature 100 mM sodium phosphate buffer (pH 7), manually adding 1 μl of 0.5 μg/μl coelenterazine or analog, manually mixing, and reading for 10 s in a luminometer. The time between the addition of the luciferin and the start of measurement was approximately 4 s.

Molecule	Activity (relative to RLuc) bc
B1	1.2
B2	2.1
B3	1.4
B4	1.1
B5	0.95
B6	2.8
B7	1.3
B8	0.83
B9	1.4
B10	0.03
B11	1.0

Same assay, conditions: bisdeoxycoelenterazine; relative to native enzyme

Molecule	Activity (relative to RLuc) bdc
B1	2.4
B2	2.6
B3	1.7
B4	1.2
B5	3.0
B6	9.5
B7	1.6
B8	0.86
B9	2.6
B10	0.03
B11	1.3

Same assay, conditions: coelenterazine-cp; relative to native enzyme

Molecule	Activity (relative to RLuc) cp
B1	0.58
B2	1.9
B3	1.6
B4	1.1
B5	1.3
B6	3.4
B7	0.95
B8	0.57
B9	1.7
B10	0.01
B11	1.1

Same assay, conditions: coelenterazine-n; relative to native enzyme

Molecule	Activity (relative to RLuc) n
B1	1.4
B2	1.9
B3	1.6
B4	1.0
B5	1.1
B6	5.0
B7	1.5
B8	0.72
B9	1.4
B10	0.06
B11	1.0

Same assay, conditions: native coelenterazine; relative to native enzyme

Molecule	Activity (relative to RLuc) native
B1	1.7
B2	2.5 ± 0.3
B3	1.9
B4	1.2
B5	1.1
B6	3.9
B7	1.7
B8	1.0
B9	1.7
B10	0.03
B11	1.1

Test system: not listed separately
Test: Serum stability in mouse serum at 37° C.
Assay type: in vitro ADME
Conditions: mouse serum, 37° C., mono-exponential fit
Protocol: (§1) Serum stability measurements were done by mixing 0.5 μl dilute Luciferase with either 20 μl mouse serum or 50 μl rat serum (Equitech-Bio, Kerrville, Tex.) placing the sample in a 37° C. incubator, and removing aliquots for activity testing. To calculate serum half-lives, mono-exponential decay curves were fit to the serum stability data using a Nelder/Mead Simplex non-linear least squares minimization algorithm provided by the Octave numerical programming language. Emission spectra at ambient temperature were measured using a Triax 320 (Horiba Jobin Yvon, Edison, N.J.), which incorporates an optical grating device with a liquid N2 cooled CCD detector.

Molecule	Serum τ1/2 (h) mouse [h]
B1	30
B2	12
B3	15
B4	3.3
B5	1.3
B6	28
B7	30
B8	5.0
B9	18
B10	5.8
B11	3.5

Test system: not listed separately
Test: Serum stability in rat serum at 37° C.
Assay type: in vitro ADME
Conditions: mono-exponential fit
Protocol: as §1

Molecule	Serum τ1/2 (h) rat [h]
B1	29
B2	11
B3	10
B4	3.6
B5	1.4
B6	20
B7	29
B8	4.9
B9	14
B10	6.4
B11	3.9

Test system: not listed separately
Test: Bioluminescence emission spectra
Assay type: physicochemical
Conditions: emission spectrum with native coelenterazine
Protocol: as §1

Molecule	Wavelength (nm) mean [nm]	Wavelength (nm) peak [nm]
B1	504	486
B2	498	482
B3	488	471
B4	489	473
B5	493	477
B6	496	478
B7	497	480
B8	497	480
B9	498	482
B10	495	478
B11	497	481

Test system: not listed separately
Test: Quantum yield measurements
Assay type: biochemical
Conditions: benzyl-coelenterazine
Protocol: For quantum yield measurements, separate 1 μl drops of protein (about 2 pm) and substrate (0.2 pm) were placed in a tube, 100 μl of 100 mM sodium phosphate buffer (pH 7) was injected by the luminometer to mix, and the total light output was integrated (generally 5-10 min). For coelenterazine-n, the protein amount was increased 10 fold and the acquisition time lengthened to insure the reaction approached completion.

Molecule	Quantum Yield (%) bc [%]
B1	3.9 ± 0.1
B2	3.3 ± 0.1
B3	3.5 ± 0.1
B6	5.0 ± 0.1
B7	3.5 ± 0.1
B9	3.4 ± 0.04

Same assay, conditions: bisdeoxycoelenterazine

Molecule	Quantum Yield (%) bdc
B1	(1.0 ± 0.9) × 10^−3%
B2	(7.1 ± 0.3) × 10^−3%
B3	(7.6 ± 0.3) × 10^−3%
B6	(20.9 ± 0.6) × 10^−3%
B7	(6.3 ± 0.7) × 10^−3%
B9	(6.7 ± 0.3) × 10^−3%

Same assay, conditions: coelenterazine-cp

Molecule	Quantum Yield (%) cp [%]
B1	4.5 ± 0.1
B2	5.1 ± 0.1
B3	5.1 ± 0.2
B6	7.2 ± 0.3
B7	4.8 ± 0.1
B9	5.0 ± 0.1

Same assay, conditions: coelenterazine-n

Molecule	Quantum Yield (%) n [%]
B1	5.7 ± 0.1
B2	6.0 ± 0.1
B3	5.8 ± 0.1
B6	7.7 ± 0.2
B7	5.8 ± 0.2
B9	5.9 ± 0.2

Same assay, conditions: native coelenterazine

Molecule	Quantum Yield (%) native [%]
B1	5.7 ± 0.2
B2	5.4 ± 0.1
B3	5.5 ± 0.1
B6	6.1 ± 0.2
B7	5.2 ± 0.3
B9	5.3 ± 0.1

Target: MDR1 P-glycoprotein (Pgp) (Homo sapiens, UniProt P08183)
Test: not given
Conditions: cited from earlier work

Sequence of MDR1 P-glycoprotein (Pgp) (P08183 whole entry): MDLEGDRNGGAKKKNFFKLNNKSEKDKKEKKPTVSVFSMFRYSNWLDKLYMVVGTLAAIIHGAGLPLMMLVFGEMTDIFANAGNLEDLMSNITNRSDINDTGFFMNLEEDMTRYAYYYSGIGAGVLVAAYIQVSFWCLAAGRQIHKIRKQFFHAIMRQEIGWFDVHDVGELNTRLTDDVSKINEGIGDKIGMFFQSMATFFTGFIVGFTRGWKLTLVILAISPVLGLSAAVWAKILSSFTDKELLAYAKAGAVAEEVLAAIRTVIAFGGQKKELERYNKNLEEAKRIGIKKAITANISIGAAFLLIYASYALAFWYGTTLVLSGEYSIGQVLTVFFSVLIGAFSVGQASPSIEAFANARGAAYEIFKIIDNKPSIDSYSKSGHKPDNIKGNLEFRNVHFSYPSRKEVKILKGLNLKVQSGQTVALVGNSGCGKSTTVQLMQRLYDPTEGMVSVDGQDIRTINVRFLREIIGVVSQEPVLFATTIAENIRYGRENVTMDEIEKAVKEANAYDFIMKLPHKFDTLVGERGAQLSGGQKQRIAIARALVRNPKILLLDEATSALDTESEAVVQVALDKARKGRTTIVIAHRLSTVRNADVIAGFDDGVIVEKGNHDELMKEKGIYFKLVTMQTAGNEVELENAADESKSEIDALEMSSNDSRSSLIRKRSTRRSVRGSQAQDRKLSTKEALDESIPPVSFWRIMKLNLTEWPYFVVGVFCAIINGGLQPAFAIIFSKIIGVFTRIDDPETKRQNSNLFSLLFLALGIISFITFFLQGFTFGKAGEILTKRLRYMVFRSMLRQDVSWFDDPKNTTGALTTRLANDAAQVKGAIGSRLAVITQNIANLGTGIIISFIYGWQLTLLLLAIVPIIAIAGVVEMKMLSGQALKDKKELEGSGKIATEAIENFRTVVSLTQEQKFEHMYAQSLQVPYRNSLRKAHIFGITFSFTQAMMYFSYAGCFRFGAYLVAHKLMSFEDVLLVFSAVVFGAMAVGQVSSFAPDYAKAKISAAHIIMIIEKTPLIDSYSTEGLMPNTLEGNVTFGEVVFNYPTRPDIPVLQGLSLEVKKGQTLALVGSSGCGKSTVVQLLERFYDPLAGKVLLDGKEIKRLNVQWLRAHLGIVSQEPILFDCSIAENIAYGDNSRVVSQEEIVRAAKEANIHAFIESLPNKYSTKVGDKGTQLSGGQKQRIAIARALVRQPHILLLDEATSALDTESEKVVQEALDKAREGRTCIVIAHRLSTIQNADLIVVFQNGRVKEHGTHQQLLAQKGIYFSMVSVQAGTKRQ

Molecule	substrate for MDR1 P-glycoprotein (Pgp)
Coelenterazine-n	not substrates for Pgp

Same assay, conditions: mammalian cells; cited from earlier work

Molecule	substrate for MDR1 P-glycoprotein (Pgp)
Oc1ccc(Cc2nc3c(Cc4ccccc4)nc(-c4ccc(O)cc4)cn3c2O)cc1 [coelenterazine, Coelenterazine]	is a substrate for MDR1 P-glycoprotein
Oc1ccc(Cc2nc3c(CC4CCCC4)nc(-c4ccc(O)cc4)cn3c2O)cc1 [coelenterazine-cp]	not substrates for Pgp
